Results taken from article PMC9749489.

Columns and labels:
[1] = test system: Putidaredoxin D38A mutant; assay: continuous-wave EPR; conditions: other: continuous-wave EPR (high-spin to low-spin conversion of the heme)
[2] = test system: Putidaredoxin W106A mutant; assay: continuous-wave EPR; conditions: other: continuous-wave EPR (high-spin to low-spin conversion of the heme)

Substance: MTSL-P450cam (P450cam labelled with MTSL at S48C and S190C)
- conversion from the high-spin to low-spin state [1]: approximately 50% conversion
- conversion from the high-spin to low-spin state [2]: approximately 50% conversion
